Reference: the RNAGym collection of RNA variant scans (doi:10.7554/elife.80360)

B1: Hairpin Ribozyme (parent)
chain: GUCCUCUUUCACGUGCGCGUGAAAGAGAGAAGUGAACCAGAGAAACACACGUUGUGGUAUAUUACCUGGUA

Variants of: B1
Assay: self-cleavage, relative activity (ratio to wild type); higher = more cleavage; co-transcriptional

Point of comparison: C6U A26C, self-cleavage 0.29. Against it:
- U5G U52G — lower, 0.255
- C6G U60C — higher, 0.618
- C6G A31U — lower, 0.0803
- C6G A31C — lower, 0.0766
- U5G G42C — lower, 0.0932
- U5G G42U — lower, 0.198
- U5G G40U — lower, 0.13
- U5G G40C — lower, 0.14
- C6G C16A — higher, 0.54
- C6A C48U — lower, 0.158
- U7A G17A — higher, 0.865
- U7A A11G — higher, 0.855
- U7A A11U — higher, 0.649
- C6G U7A — higher, 0.337
- U7A G13A — higher, 0.962
- C6G G15C — higher, 0.545
- U7A A71U — higher, 0.814
- U7A A71G — higher, 0.895
- C6G U53G — higher, 0.454
- C6U C18G — higher, 0.775
- C6U C18U — higher, 0.82
- C6U A39U — higher, 0.381
- C6G A61U — lower, 0.183
- U7A C37G — higher, 0.342
- U5G U8G — lower, 0.262
- U5G U8C — lower, 0.099
- C6U C46U — lower, 0.176
- U5G A26G — lower, 0.286
- U5G A26U — higher, 0.51
- C6U A44G — lower, 0.132
- C6U A44C — lower, 0.119
- C6A G51U — higher, 0.58
- U5G — higher, 0.324
- U5G G21A — lower, 0.17
- C6A C65G — lower, 0.158
- C6A C65U — lower, 0.265
- C6A U70G — higher, 0.325
- U5C G27C — lower, 0.15
- U5C G27U — lower, 0.0794
- U5G A45G — lower, 0.121
- C6U G56A — lower, 0.193
- C6A G34A — higher, 0.817
- U5C C10G — higher, 0.373
- U7A A35G — higher, 0.796
- U7A C66G — lower, 0.146
- U5C A71U — higher, 0.564
- C6A U55G — lower, 0.14
- C6A U55A — lower, 0.202
- C6A U62A — lower, 0.127
- C6A U62G — lower, 0.0891
- U7A A49G — higher, 0.49
- U7A A49U — lower, 0.16
- U5G U58G — lower, 0.0427
- U7A A43G — lower, 0.222
- U7A C12G — higher, 0.662
- C6U C48G — lower, 0.116
- C6A A24G — higher, 0.45
- C6U U62C — lower, 0.188
- C6A U67G — lower, 0.173
- C6U U7A — higher, 0.515
- C6A A35U — higher, 0.428
- C6A A35C — higher, 0.695
- C6A A35G — higher, 0.619
- C6U G69A — higher, 0.379
- C6G A71C — higher, 0.855
- C6U A26G — higher, 0.31
- C6A U60A — higher, 0.541
- C6A U8A — higher, 0.319
- U5C C18G — lower, 0.251
- U5C C18A — higher, 0.699
- C6A C10G — higher, 0.377
- U5G U55G — lower, 0.2
- U5C C6G — lower, 0.138
- C6U A30C — lower, 0.205
- C6U A30G — lower, 0.128
- C6A G21C — higher, 0.364
- C6A C16A — higher, 0.561
- C6G A45G — lower, 0.0674
- C6G A45U — lower, 0.101
- C6G U70G — higher, 0.361
- C6G U70A — higher, 0.399
- U5C U33G — lower, 0.208
- U5C U33C — lower, 0.0316
- U5C U33A — lower, 0.149
- U5C U7G — higher, 0.365
- U5C U7A — higher, 0.395
- C6U G42C — higher, 0.342
- C6G C46U — lower, 0.143
- C6G C46A — lower, 0.153
- U5C U67C — lower, 0.144
- C6U U60A — higher, 0.732
- C6U U60G — higher, 0.502
- U5G A44U — lower, 0.093
- C6U U9C — higher, 0.369
- C6U U9G — higher, 0.438
- U5G C46A — lower, 0.195
- U5G C50U — lower, 0.147
- U7A A59C — lower, 0.136
- U7A A59G — lower, 0.194
- U5G A23G — higher, 0.372
- C6G A23U — higher, 0.344
- C6G A23G — higher, 0.446
- U5G A24G — higher, 0.331
- C6G A36G — higher, 0.768
- C6A U33C — lower, 0.0869
- U5G U60A — lower, 0.161
- U5G U60C — higher, 0.593
- C6U G51U — higher, 0.88
- C6U U58G — higher, 0.663
- C6U U58C — higher, 0.893
- C6A A59U — lower, 0.107
- C6A A59C — lower, 0.113
- C6A G42A — lower, 0.161
- U5G A61C — lower, 0.112
- U5G A61U — lower, 0.108
- U7A C46U — lower, 0.159
- U7A C46G — lower, 0.108
- U5G G15A — higher, 0.407
- U7A A39G — higher, 0.318
- C6U A43U — lower, 0.119
- U5C G54A — higher, 0.467
- U5C G54U — higher, 0.492
- U5C G54C — lower, 0.169
- U5C C66U — higher, 0.38
- U5C C66G — lower, 0.113
- U5G G57U — lower, 0.163
- U5G G57A — lower, 0.127
- U5G G29A — lower, 0.139
- U5C U55G — higher, 0.351
- C6A U58C — higher, 0.697
- U5G A43U — lower, 0.155
- U5G A43C — lower, 0.269
- C6U C10G — higher, 0.416
- C6G C48A — lower, 0.171
- U7A A64C — lower, 0.194
- U5C C38A — lower, 0.168
- C6U G57U — higher, 0.324
- C6U G57A — lower, 0.117
- C6U A22G — higher, 0.796
- U5C C12U — higher, 0.772
- U7A C38U — higher, 0.329
- U5G G54C — lower, 0.212
- U5G G54A — lower, 0.204
- C6G G40U — lower, 0.103
- U5G G56U — lower, 0.125
- U5C U14C — higher, 0.557
- U5C U14G — higher, 0.385
- C6U A45G — lower, 0.135
- C6U A45U — lower, 0.194
- C6A A26C — higher, 0.418
- C6G G34U — higher, 0.982
- C6U U52G — higher, 0.797
- U5G C18G — higher, 0.577
- C6A A28G — higher, 0.811
- C6A A28U — higher, 0.365
- U5G A36C — higher, 0.38
- C6A A11C — higher, 0.415
- C6A A11U — higher, 0.399
- C6U G29C — lower, 0.13
- C6G A59U — lower, 0.192
- C6A A30C — lower, 0.221
- C6A A47C — lower, 0.221
- C6A A47U — lower, 0.182
- U5G G25A — lower, 0.225
- C6G U20G — lower, 0.248
- C6G U20C — higher, 0.368
